Test results reported in the supplement of paper PMC11316812.
± gives the standard deviation of the averaged measurements.

What was measured:
MCF7 = assay: percentage of EdU-negative (G0-arrested) nuclei per well, 72 h; higher = more G0 arrest; settings: reference: sequence is the full UniProt precursor, the tested protein was the secreted form or ectodomain
hTERT-HMEC = assay: as above; settings: reference: sequence is the full UniProt precursor, the tested protein was the secreted form or ectodomain
[1] = protein concentration 0.0283425 µM
[2] = protein concentration 0.283425 µM
[3] = protein concentration 0.0208571 µM
[4] = protein concentration 0.208571 µM
[5] = protein concentration 0.0225 µM
[6] = protein concentration 0.0270475 µM
[7] = protein concentration 0.270475 µM
[8] = protein concentration 0.0219975 µM
[9] = protein concentration 0.219975 µM
[10] = protein concentration 0.0267275 µM
[11] = protein concentration 0.267275 µM
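Also: secreted proteins added to cultured cells, EdU pulse at the end, nuclei found by Hoechst imaging, EdU status from nuclear versus surrounding ring intensity ratio, PBS as neutral control.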

Sequence: MSEVPVARVWLVLLLLTVQVGVTAGAPWQCAPCSAEKLALCPPVSASCSEVTRSAGCGCCPMCALPLGAACGVATARCARGLSCRALPGEQQPLHALTRGQGACVQESDASAPHAAEAGSPESPESTEITEEELLDNFHLMAPSEEDHSILWDAISTYDGSKALHVTNIKKWKEPCRIELYRVVESLAKAQETSGEEISKFYLPNCNKNGFYHSRQCETSMDGEAGLCWCVYPWNGKRIPGSPEIRGDPNCQIYFNVQN
- percentage of EdU-negative (MCF7; [1]): 24.4 ± 0.48%
- percentage of EdU-negative (MCF7; [2]): 29.6 ± 4%
- percentage of EdU-negative (hTERT-HMEC; [1]): 5.41 ± 0.56%
- percentage of EdU-negative (hTERT-HMEC; [2]): 9.21 ± 1.1%

Sequence: MGKNKLLHPSLVLLLLVLLPTDASVSGKPQYMVLVPSLLHTETTEKGCVLLSYLNETVTVSASLESVRGNRSLFTDLEAENDVLHCVAFAVPKSSSNEEVMFLTVQVKGPTQEFKKRTTVMVKNEDSLVFVQTDKSIYKPGQTVKFRVVSMDENFHPLNELIPLVYIQDPKGNRIAQWQSFQLEGGLKQFSFPLSSEPFQGSYKVVVQKKSGGRTEHPFTVEEFVLPKFEVQVTVPKIITILEEEMNVSVCGLYTYGKPVPGHVTVSICRKYSDASDCHGEDSQAFCEKFSGQLNSHGCFYQQVKTKVFQLKRKEYEMKLHTEAQIQEEGTVVELTGRQSSEITRTITKLSFVKVDSHFRQGIPFFGQVRLVDGKGVPIPNKVIFIRGNEANYYSNATTDEHGLVQFSINTTNVMGTSLTVRVNYKDRSPCYGYQWVSEEHEEAHHTAYLVFSPSKSFVHLEPMSHELPCGHTQTVQAHYILNGGTLLGLKKLSFYYLIMAKGGIVRTGTHGLLVKQEDMKGHFSISIPVKSDIAPVARLLIYAVLPTGDVIGDSAKYDVENCLANKVDLSFSPSQSLPASHAHLRVTAAPQSVCALRAVDQSVLLMKPDAELSASSVYNLLPEKDLTGFPGPLNDQDNEDCINRHNVYINGITYTPVSSTNEKDMYSFLEDMGLKAFTNSKIRKPKMCPQLQQYEMHGPEGLRVGFYESDVMGRGHARLVHVEEPHTETVRKYFPETWIWDLVVVNSAGVAEVGVTVPDTITEWKAGAFCLSEDAGLGISSTASLRAFQPFFVELTMPYSVIRGEAFTLKATVLNYLPKCIRVSVQLEASPAFLAVPVEKEQAPHCICANGRQTVSWAVTPKSLGNVNFTVSAEALESQELCGTEVPSVPEHGRKDTVIKPLLVEPEGLEKETTFNSLLCPSGGEVSEELSLKLPPNVVEESARASVSVLGDILGSAMQNTQNLLQMPYGCGEQNMVLFAPNIYVLDYLNETQQLTPEIKSKAIGYLNTGYQRQLNYKHYDGSYSTFGERYGRNQGNTWLTAFVLKTFAQARAYIFIDEAHITQALIWLSQRQKDNGCFRSSGSLLNNAIKGGVEDEVTLSAYITIALLEIPLTVTHPVVRNALFCLESAWKTAQEGDHGSHVYTKALLAYAFALAGNQDKRKEVLKSLNEEAVKKDNSVHWERPQKPKAPVGHFYEPQAPSAEVEMTSYVLLAYLTAQPAPTSEDLTSATNIVKWITKQQNAQGGFSSTQDTVVALHALSKYGAATFTRTGKAAQVTIQSSGTFSSKFQVDNNNRLLLQQVSLPELPGEYSMKVTGEGCVYLQTSLKYNILPEKEEFPFALGVQTLPQTCDEPKAHTSFQISLSVSYTGSRSASNMAIVDVKMVSGFIPLKPTVKMLERSNHVSRTEVSSNHVLIYLDKVSNQTLSLFFTVLQDVPVRDLKPAIVKVYDYYETDEFAIAEYNAPCSKDLGNA
- percentage of EdU-negative (MCF7; [3]): 23 ± 0.6%
- percentage of EdU-negative (MCF7; [4]): 27.8 ± 2.3%
- percentage of EdU-negative (hTERT-HMEC; [3]): 4.57 ± 0.3%
- percentage of EdU-negative (hTERT-HMEC; [4]): 5.37 ± 0.84%

Sequence: MLTRLVLSAHLSSTTSPPWTHAAISWELDNVLMPSPRIWPQVTPTGRSASVRSEGNTSSLWNFSAGQDVHAIVTRTCESVLSSAVYTHGCGCVRSATNITCQSSGQQRQAARQEEENSICKAHDSREGRLGYPLSAHQPGSGGPN [Q8TAV5]
- percentage of EdU-negative (MCF7; [5]): 24.95 ± 0.064%
- percentage of EdU-negative (MCF7; protein concentration 0.225 µM): 26 ± 2.6%
- percentage of EdU-negative (hTERT-HMEC; [5]): 5.652 ± 0.04%
- percentage of EdU-negative (hTERT-HMEC; protein concentration 0.225 µM): 12.7 ± 0.25%

Sequence: MAQTSSYFMLISCLMFLSQSQGQEAQTELPQARISCPEGTNAYRSYCYYFNEDRETWVDADLYCQNMNSGNLVSVLTQAEGAFVASLIKESGTDDFNVWIGLHDPKKNRRWHWSSGSLVSYKSWGIGAPSSVNPGYCVSLTSSTGFQKWKDVPCEDKFSFVCKFKN
- percentage of EdU-negative (MCF7; [6]): 25 ± 1.8%
- percentage of EdU-negative (MCF7; [7]): 23.9 ± 0.49%
- percentage of EdU-negative (hTERT-HMEC; [6]): 6.23 ± 0.99%
- percentage of EdU-negative (hTERT-HMEC; [7]): 6.73 ± 0.84%

Sequence: MCHQQLVISWFSLVFLASPLVAIWELKKDVYVVELDWYPDAPGEMVVLTCDTPEEDGITWTLDQSSEVLGSGKTLTIQVKEFGDAGQYTCHKGGEVLSHSLLLLHKKEDGIWSTDILKDQKEPKNKTFLRCEAKNYSGRFTCWWLTTISTDLTFSVKSSRGSSDPQGVTCGAATLSAERVRGDNKEYEYSVECQEDSACPAAEESLPIEVMVDAVHKLKYENYTSSFFIRDIIKPDPPKNLQLKPLKNSRQVEVSWEYPDTWSTPHSYFSLTFCVQVQGKSKREKKDRVFTDKTSATVICRKNASISVRAQDRYYSSSWSEWASVPCS
- percentage of EdU-negative (MCF7; [8]): 27.4 ± 2.1%
- percentage of EdU-negative (MCF7; [9]): 27.5 ± 0.78%
- percentage of EdU-negative (hTERT-HMEC; [8]): 5.23 ± 1.3%
- percentage of EdU-negative (hTERT-HMEC; [9]): 7.74 ± 1.1%

Sequence: MRLRRLALFPGVALLLAAARLAAASDVLELTDDNFESRISDTGSAGLMLVEFFAPWCGHCKRLAPEYEAAATRLKGIVPLAKVDCTANTNTCNKYGVSGYPTLKIFRDGEEAGAYDGPRTADGIVSHLKKQAGPASVPLRTEEEFKKFISDKDASIVGFFDDSFSEAHSEFLKAASNLRDNYRFAHTNVESLVNEYDDNGEGIILFRPSHLTNKFEDKTVAYTEQKMTSGKIKKFIQENIFGICPHMTEDNKDLIQGKDLLIAYYDVDYEKNAKGSNYWRNRVMMVAKKFLDAGHKLNFAVASRKTFSHELSDFGLESTAGEIPVVAIRTAKGEKFVMQEEFSRDGKALERFLQDYFDGNLKRYLKSEPIPESNDGPVKVVVAENFDEIVNNENKDVLIEFYAPWCGHCKNLEPKYKELGEKLSKDPNIVIAKMDATANDVPSPYEVRGFPTIYFSPANKKLNPKKYEGGRELSDFISYLQREATNPPVIQEEKPKKKKKAQEDL
- percentage of EdU-negative (MCF7; [10]): 23.5 ± 0.4%
- percentage of EdU-negative (MCF7; [11]): 26.1 ± 0.34%
- percentage of EdU-negative (hTERT-HMEC; [10]): 5.82 ± 1%
- percentage of EdU-negative (hTERT-HMEC; [11]): 5.84 ± 0.16%
